What was measured:
Details in all cases: both partners purified
[1] = target: T1, SPDL1(2–359)::Strep-tag II (human, UniProt Q96EA4 2-359); experiment: MST; 10 nM LIC1(388–523)::6xHis labelled with Red-Tris NTA dye; 16 two-fold dilutions of adaptor::Strep-tag II; 25°C
T1 construct: human Spindly (SPDL1), N-terminal region, residues 2-359; also called Spindly; source: E. coli BL21, purified (Ni-NTA, TEV cleavage, Strep-Tactin; dialysis or SEC); not shown: 6xHis::MBP, N-terminal, cleaved; Strep-tag II (after linker GSGSGR), C-terminal, kept
T1 sequence (looked up): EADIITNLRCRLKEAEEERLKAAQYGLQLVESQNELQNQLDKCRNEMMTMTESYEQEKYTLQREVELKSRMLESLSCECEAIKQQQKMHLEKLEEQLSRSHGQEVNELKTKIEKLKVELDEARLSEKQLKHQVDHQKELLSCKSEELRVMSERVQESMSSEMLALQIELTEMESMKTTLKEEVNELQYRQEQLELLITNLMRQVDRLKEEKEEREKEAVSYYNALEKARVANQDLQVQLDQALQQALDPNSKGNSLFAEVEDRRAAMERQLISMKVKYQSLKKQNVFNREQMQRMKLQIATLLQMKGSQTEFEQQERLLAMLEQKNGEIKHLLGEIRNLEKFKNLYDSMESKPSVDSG

[2] = target: T2, BICD2(2–422)::Strep-tag II (human, UniProt Q8TD16 2-422); experiment: as above
T2 construct: human bicaudal D homolog 2 (BICD2), N-terminal region, residues 2-422; also called bicaudal D homolog 2; source: E. coli BL21, purified (Ni-NTA, TEV cleavage, Strep-Tactin; dialysis or SEC); not shown: 6xHis::MBP, N-terminal, cleaved; Strep-tag II (after linker GSGSGR), C-terminal, kept

[3] = target: T3, HOOK3(2–239)::Strep-tag II (human, UniProt Q86VS8 2-239); experiment: as above
T3 construct: human Hook homolog 3 (HOOK3), residues 2-239; used for NMR, SPR and MST; also called Hook homolog 3; source: E. coli Rosetta, purified (Ni-NTA, TEV cleavage, Strep-Tactin; dialysis or SEC); not shown: 6xHis::MBP, N-terminal, cleaved; Strep-tag II (after linker GSGSGR), C-terminal, kept
T3 sequence (looked up): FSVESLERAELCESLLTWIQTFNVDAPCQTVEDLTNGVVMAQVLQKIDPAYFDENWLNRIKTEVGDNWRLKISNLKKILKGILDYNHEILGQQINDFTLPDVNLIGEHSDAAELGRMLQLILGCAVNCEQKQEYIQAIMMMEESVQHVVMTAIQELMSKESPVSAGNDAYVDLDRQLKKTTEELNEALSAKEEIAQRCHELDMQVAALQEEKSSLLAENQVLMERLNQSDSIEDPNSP

[4] = target: T1, SPDL1(2–359)::Strep-tag II; experiment: SPR; Biacore 3000; His-tagged LIC1 immobilised on NTA chip (200–300 RU), Strep-tagged adaptor as analyte; HBS-P (10 mM HEPES, 150 mM NaCl, 0.005% surfactant P20, pH 7.4)
[5] = target: T2, BICD2(2–422)::Strep-tag II; experiment: as above
[6] = target: T3, HOOK3(2–239)::Strep-tag II; experiment: as above

T2 sequence (Q8TD16 2-422): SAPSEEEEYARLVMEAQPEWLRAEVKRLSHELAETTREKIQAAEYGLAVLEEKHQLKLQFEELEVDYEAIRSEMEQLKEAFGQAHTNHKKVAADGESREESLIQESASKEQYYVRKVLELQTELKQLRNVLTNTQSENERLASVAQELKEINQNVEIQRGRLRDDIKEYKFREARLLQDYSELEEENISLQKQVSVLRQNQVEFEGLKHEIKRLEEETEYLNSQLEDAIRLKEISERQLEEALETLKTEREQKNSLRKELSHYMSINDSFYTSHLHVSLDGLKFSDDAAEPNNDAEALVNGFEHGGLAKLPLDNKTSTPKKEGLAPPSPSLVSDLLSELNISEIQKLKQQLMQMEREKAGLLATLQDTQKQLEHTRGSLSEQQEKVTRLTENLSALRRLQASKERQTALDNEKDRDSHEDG

- Kd [1]: 13.1 µM
- Kd [3]: 4 µM
- Kd [4]: 5.7 µM
- Kd [6]: 1.9 µM
B1: LIC1(388–523)::6xHis (domain or fragment, human)
chain: WPTAAGRPVDASPRVPGGSPRTPNRSVSSNVASVSPIPAGSKKIDPNMKAGATSEGVLANFFNSLLSKKTGSPGGPGVSGGSPAGGAGGGSSGLPPSTKKSGQKPVLDVHAELDRITRKPVTVSPTTPTSPTEGEAS
notes: single N-terminal tryptophan added in the construct; 15N-labelled for the NMR titration; labelled with Red-Tris NTA dye on the His tag for MST; also called LIC1-C; LIC1-C::6xHis; source: E. coli BL21, purified (GSTrap, PreScission cleavage, second GSTrap, SEC Superdex 75); not shown: GST, N-terminal, cleaved; 6xHis (after linker GSGSG), C-terminal, kept
- Kd [2]: 6 µM
- Kd [5]: 1.07 µM
